The values that follow come from US20190016800A1.

In this experiment the target is cynomolgus monkey LAG-3 protein (Cat#LA3-C52A0, Acrobiosystems) (cynomolgus monkey). As to the kind of experiment: BLI ForteBio Octet RED 96, biotin labeled antibody on streptavidin sensor, antigen 3.125-100 nM, 1:1 fit.

Substance “LAG3.5 (BMS-986016, developed by Bristol-Myers Squibb) (antibody)” yielded a Kd of 2.22 nM.
